Source: paper PMC10899662, “TopBP1 utilises a bipartite GINS binding mode to support genome replication” (Nature Communications, 2024)

Molecular target: GINS (HIS-(3C)-Sld5, Psf1, Psf2, Psf3) for structural and fluorescence polarisation studies, Q9BRT9;Q14691;Q9Y248;Q9BRX5
Test: fluorescence polarisation
Settings: point at the highest concentration, 150 µM; parent: est. 180; read off a plot

Substance: fluorescently labelled GINI-core peptide (Ala478-Gly497), WT L490P; L491P
- response: 3 mP
